Paper doi:10.1101/322404, “Discovery of a novel stereospecific β-hydroxyacyl-CoA lyase/thioesterase shared by three metabolic pathways in Mycobacterium tuberculosis” (bioRxiv, 2018)

Biological target: the molecule itself
Assay: crystal structure

B1: Mycobacterium tuberculosis Rv2498c, β-hydroxyacyl-CoA lyase/thioesterase (enzyme)
chain: MNLRAAGPGWLFCPADRPERFAKAAAAADVVILDLEDGVAEAQKPAARNALRDTPLDPERTVVRINAGGTADQARDLEALAGTAYTTVMLPKAESAAQVIELAPRDVIALVETARGAVCAAEIAAADPTVGMMWGAEDLIATLGGSSSRRADGAYRDVARHVRSTILLAASAFGRLALDAVHLDILDVEGLQEEARDAAAVGFDVTVCIHPSQIPVVRKAYRPSHEKLAWARRVLAASRSERGAFAFEGQMVDSPVLTHAETMLRRAGEATSE
notes: also called β-HAClyase/thioesterase; CitE-like
  stoichiometry N: 3
